Measurements taken from patent publication US4829052A, “Serine protease inhibitors” (Monsanto Company, priority 1987, dated 1989).
“Also recorded” adds a separate entry of the source.

Key:
Format in all cases: biochemical
bovine chymotrypsin = bovine chymotrypsin (Bos taurus, UniProt P00766); experiment: Chymotrypsin assay (spectrophotometric, p-nitroanilide substrate); conditions: for Inhibitory Activity Chymotrypsin: inhibitor/protease ratio between about 10/1 and 50/1
Experimental: (§1) The inhibitory activity of the polypeptides of the present invention can be easily assayed using in vitro assays. In these types of spectrophotometric assays the activity of the serine protease is measured toward an appropriate p-nitroanilide substrate in the presence and absence of the peptide inhibitor. The enzyme catalyzed hydrolysis of the peptide p-nitroanilide substrate produces p-nitroanaline which results in an increase in absorbance which is monitored in the range of 405 to 410 nm. The rate of increase in absorbance is a measure of the enzymatic activity and the decrease in this rate relative to a suitable control is used to ascertain inhibition. The general assay procedure and details of the particular assays employed in the examples are provided in the Appendix following the examples. It is also possible to test the polypeptides in a functionally oriented assay that emulates in vivo conditions. Such an inhibition assay for elastase is also described in the Appendix.
(§2) Generalized Protocol Spectrophotometric Assays:
(§3) (1) Pipette 100 μl of enzyme solution into a disposable polystyrene cuvette (1 cm optical path length).
(§4) (2) Add (1900-X) μl of bufferto the cuvette, where X is the volume of test solution in microliters that is added in the next step.
(§5) Add X μl of test solution to the cuvette, where X ranges from 0 μl for the control to a maximum of about 500 μl. Incubate the solution for a period of 1 to 5 minutes at ambient temperature.
(§6) (4) Add 100 μl of substrate solution to the cuvette. Mix the contents by covering the cuvette with a piece of paraffin film and repeatedly inverting for a period of 5 to 15 seconds.
(§7) (5) Record the change in absorbance for about 5 minutes at either 405 or 410 nm, depending on the assay, with a spectrophotometer equipped with a suitable recording device.
(§8) The percent inhibition is calculated from the formula [formula] where (ΔA/min) is the initial rate of absorbance change.
(§9) (7) For more accurate quantitative determinations temperature control of the cuvette holders and the reagent solutions can be instituted.
(§10) (8) The test solution can be crude oxidized peptide prepared as described above, fractions from a chromatographic separation or purified polypeptides.
(A) Buffer solution - triethanolamine buffer- See trypsin assay.
(B) Substrate Solution - Dissolve 25 mg of 3-carbomethoxypropionyl-L-arginyl-L-prolyl-L-tyrosine p-nitroanilide (Product No. S-2586, KabiVitrum AB, Stockholm, Sweden) in 23.6 ml of water
(C) Enzyme solution - Dissolve 1 mg of bovine chymotrypsin in 4 ml of 0.001N HCl. Prepare the final dilution by combining 0.1 ml of the stock chymotrypsin solution and 10 ml of 0.001N HCl. Store on ice or at 4° C.
Procedure: Use the above solutions in the general protocol
(2) See note 1 of the cathepsin G assay.
(3) 0.1M Tris-HCl, pH 7.8, 20 mM CaCl2, 0.05% triton X-100 can be substituted for the triethanolamine buffer.

Human Sputum Elastase = biological target: T1, Human Sputum Elastase (Homo sapiens, UniProt P08246); experiment: Elastase assay (spectrophotometric, p-nitroanilide substrate); conditions: for Inhibitory Activity Elastase: inhibitor/protease ratio between about 10/1 and 50/1; for inhibition of human elastase (in words): text discussion of Table III
T1 construct: Human Sputum Elastase, product No. SE-563 EPC, Inc., Pacific, Mo; USA, Lot 85701; purchased EPC, Inc., Pacific, Mo; USA SE-563; host or cells: human sputum
T1 sequence (P08246 30-267): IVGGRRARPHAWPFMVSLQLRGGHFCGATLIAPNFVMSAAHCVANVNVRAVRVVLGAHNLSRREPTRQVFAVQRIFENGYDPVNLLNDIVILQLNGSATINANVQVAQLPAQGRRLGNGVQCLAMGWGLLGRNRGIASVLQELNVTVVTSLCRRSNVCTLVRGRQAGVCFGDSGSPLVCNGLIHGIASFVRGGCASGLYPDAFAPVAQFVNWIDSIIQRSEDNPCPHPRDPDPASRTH
Experimental: as §1, §2, §3, §4, §5, §6, §7, §8, §9, §10
(A) Buffer Solution - Tris-NaCl buffer consisting of 0.1M Tris-HCl pH 7.5 at 25° C. containing 0.5M NaCl and 0.01% (w/v) NaNs.
(B) Substrate Solution - Dissolve 45.5 mg of N-succinyl-L-alanyl-L-alanyl-L-alanine p-nitroanilide in 1 ml of 1-methyl-2-pyrrolidinone. Add 32 ml of Tris-NaCl buffer.
(C) Enzyme Solution - Human Sputum Elastase, product No. SE-563 EPC, Inc., Pacific, Mo. USA, Lot 85701. Dissolve 1 mg in 1 ml of Tris-NaCl buffer. Store on ice or at 4° C.
(§11) (D) Test Solution - See general protocol, number 8.
(§12) Procedure: Use the above solutions in the general protocol described above.
(1) Buffer Solution - Tris-NaCl buffer -see Method 1.
(2) Substrate Solution - Dissolve 50 mg of 3-carbomethoxypropionyl-L-alanyl-L-alanyl-L-[…]-L-valine p-nitroanilidein 1 ml of 1-methyl-2-pyrrolidinone. Add 32 ml of Tris-NaCl buffer.
(3) Enzyme Solution - Human sputum elastase, product No. SE-563, EPC, inc. Pacific, Mo. USA, Lot 85071. Prepare a sample at a concentration of 0.01 mg per ml of Tris-NaCl buffer. Store on ice.
(4) Test Solution - general protocol, number 8.
Procedure: Use the above solutions in the general protocol.
(1) Porcine pancreatic elastase may be substituted for human elastase when it is desired to test for an inhibitor of the former.
(2) The activity of an elastase preparation can be calculated as [formula]
(3) The Tris-NaCl buffer also can be pH 8.0 with 0.03% sodium azide. Results should be compared at a single pH.

bovine trypsin = biological target: T2, bovine trypsin (Bos taurus, UniProt P00760); experiment: Trypsin assay (spectrophotometric, N-Benzoyl-L-arginine p-nitroanilide substrate); conditions: for Inhibitory Activity Trypsin: inhibitor/protease ratio between about 10/1 and 50/1
T2 sequence (P00760 24-246): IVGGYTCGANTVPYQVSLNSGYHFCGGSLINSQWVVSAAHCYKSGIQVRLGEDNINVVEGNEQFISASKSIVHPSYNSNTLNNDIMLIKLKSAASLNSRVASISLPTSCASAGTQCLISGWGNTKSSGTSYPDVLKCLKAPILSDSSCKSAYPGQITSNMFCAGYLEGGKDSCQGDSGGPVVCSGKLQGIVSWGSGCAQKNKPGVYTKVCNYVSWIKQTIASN
Experimental: as §1, §2, §3, §4, §5, §6, §7, §8, §9, §10
(A) Buffer Solution - Triethanolamine buffer consisting of 200 mM triethanolamine, 20 mM CaCl2, pH 7.8
(B) Substrate solution - Dissolve 50 mg of N-Benzoyl-L-arginine p-nitroanilide in 50 ml of water. Sonicate for 5 to 10 minutes to completely dissolve the solid material.
(C) Enzyme solution - Dissolve 1 mg of bovine trypsin in 10 ml of 0.001N HCl stored on ice during the assay.
as §11, §12

Human Sputum Cathepsin G = biological target: T3, Human Sputum Cathepsin G (Homo sapiens, UniProt P08311); experiment: Cathepsin G assay (spectrophotometric, p-nitroanilide substrate); conditions: for Inhibitory Activity Cathepsin G: inhibitor/protease ratio between about 10/1 and 50/1
T3 construct: Human Sputum Cathepsin G (Product No. SG-45, EPC, Inc., Pacific, Mo.); purchased EPC, Inc., Pacific, Mo; SG-45; host or cells: human sputum
T3 sequence (P08311 21-255): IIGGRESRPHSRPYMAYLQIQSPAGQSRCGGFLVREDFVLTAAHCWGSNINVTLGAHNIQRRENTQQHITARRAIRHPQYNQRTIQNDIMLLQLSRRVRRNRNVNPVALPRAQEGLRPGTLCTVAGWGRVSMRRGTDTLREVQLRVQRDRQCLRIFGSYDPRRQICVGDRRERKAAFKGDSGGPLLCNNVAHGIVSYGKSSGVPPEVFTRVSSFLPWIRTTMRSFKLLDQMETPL
Experimental: as §1, §2, §3, §4, §5, §6, §7, §8, §9, §10
(A) Buffer Solution - Tris-NaCl buffer consisting of 0.1M Tris-HCl, pH 8.0 containing 0.5M NaCl and 0.03% sodium azide.
(B) Substrate solution - Dissolve 50 mg of N-succinyl-L-alanyl-L-alanyl-L-prolyl-L-phenylalanine p-nitroanilide in 1 ml of 1-methyl-2-pyrrolidinone and dilute to 50 ml with Tris-NaCl buffer.
(C) Enzyme Solution - Human Sputum Cathepsin G (Product No. SG-45, EPC, Inc., Pacific, Mo.). Dissolve 1 mg of protein per 1 ml of Tris-NaCl buffer. Store on ice or at 4° C.
(D) Test Solutions - See the general protocol, number 8.
Procedure: Use the above solution in the general protocol described above. […]

Substance	Inhibitory Activity Chymotrypsin (bovine chymotrypsin)	inhibition of chymotrypsin (in words) (bovine chymotrypsin; text discussion of Table III)	Inhibitory Activity Elastase (Human Sputum Elastase)	inhibition of human elastase (in words) (Human Sputum Elastase)	Inhibitory Activity Trypsin (bovine trypsin)	inhibition of trypsin (in words) (bovine trypsin; text discussion of Table III)	Inhibitory Activity Cathepsin G (Human Sputum Cathepsin G)	inhibition of cathepsin G (in words) (Human Sputum Cathepsin G; text discussion of Table III)
RVCPFILMKCKKDSDCLAECVCLEHGYCG (RVCPFILMKCKKDSDCLAECVCLEHGYCG) [Peptide 15]	++ (Represents greater than 50% inhibition)	Inhibition of chymotrypsin and cathepsin G was observed	++ (Represents greater than 50% inhibition)	inhibited	++ (Represents greater than 50% inhibition)	inhibited	++ (Represents greater than 50% inhibition)	Inhibition of chymotrypsin and cathepsin G was observed
RVCPIILMKCKKDSDCLAECVCLEHGYCG (RVCPIILMKCKKDSDCLAECVCLEHGYCG) [Peptide 1]	- (Represents less than 10% inhibition)		++ (Represents greater than 50% inhibition)		- (Represents less than 10% inhibition)		- (Represents less than 10% inhibition)	
RVCPVALMKCKKDSDCLAECVCLEHGYCG (RVCPVALMKCKKDSDCLAECVCLEHGYCG) [Peptide 48]	- (Represents less than 10% inhibition)		+ (Represents between 10% and 50% inhibition)	continue to be inhibitors of human elastase	- (Represents less than 10% inhibition)		- (Represents less than 10% inhibition)	
RVCPVILLKCKKDSDCLAECVCLEHGYCG (RVCPVILLKCKKDSDCLAECVCLEHGYCG) [Peptide 45]	- (Represents less than 10% inhibition)		++ (Represents greater than 50% inhibition)	continue to be inhibitors of human elastase	- (Represents less than 10% inhibition)		- (Represents less than 10% inhibition)	
RVCPVSLMKCKKDSDCLAECVCLEHGYCG (RVCPVSLMKCKKDSDCLAECVCLEHGYCG) [Peptide 44]	- (Represents less than 10% inhibition)		++ (Represents greater than 50% inhibition)		- (Represents less than 10% inhibition)		- (Represents less than 10% inhibition)	
R V C P V I L Nle KCKKDSDCLAECVCLEHGYCG [Peptide 43]	- (Represents less than 10% inhibition)		++ (Represents greater than 50% inhibition)		- (Represents less than 10% inhibition)		- (Represents less than 10% inhibition)	
RVCPAILMKCKKDSDCLAECVCLEHGYCG (RVCPAILMKCKKDSDCLAECVCLEHGYCG) [Peptide 36]	++ (Represents greater than 50% inhibition)		++ (Represents greater than 50% inhibition)	continue to be inhibitors of human elastase	+ (Represents between 10% and 50% inhibition)		+ (Represents between 10% and 50% inhibition)	
RVCGVILMKCKKDSDCLAECVCLEHGYCG (RVCGVILMKCKKDSDCLAECVCLEHGYCG) [Peptide 46]	- (Represents less than 10% inhibition)		++ (Represents greater than 50% inhibition)	continue to be inhibitors of human elastase	- (Represents less than 10% inhibition)		- (Represents less than 10% inhibition)	
RVPCVALMKCKKDSDCLAECVCLEHGYCG (RVPCVALMKCKKDSDCLAECVCLEHGYCG) [Peptide 49]	- (Represents less than 10% inhibition)		+ (Represents between 10% and 50% inhibition)	continue to be inhibitors of human elastase; also recorded: only marginal activity	- (Represents less than 10% inhibition)		- (Represents less than 10% inhibition)	
